Experimental data from US20220259284A1, “CA2 COMPOSITIONS AND METHODS FOR TUNABLE REGULATION” (Obsidian Therapeutics, Inc., priority 2019, published 2022).

Columns and labels:
[1] = tested on: CD40L constructs regulated by Carbonic anhydrase DDs in T cells; experiment: Acetazolamide dose response of CD40L expression in transduced T cells, FACS (MFI, % CD40L positive); assay type: cell-based, human; details: for CD40L MFI / Percentage CD40L positive cells: 24 hours; for CD40L MFI: FACS
Method: (§1) CD40L constructs regulated by Carbonic anhydrase DDs were generated and cloned into lentiviral vectors. Purified T cells were thawed and cultured with aCD3 aCD28 Dynabeads (in the ratio of 3 beads to 1 T cell).
The constructs were transduced in T cells the next day. […] 24 hours after the addition of ligand T cells were stained for CD40L expression and analyzed using FACS.

[2] = tested on: monocyte derived dendritic cells (DCs), Nalm6; experiment: IFNg and IL-12 in supernatant of DC + Nalm6 + CAR+ T cell co-culture, MSD; assay type: cell-based; details: DC + T cells + Nalm6, no ligand stated, supernatant 24 hours
Method: To measure the effect of CD40L expression that is tuned by the biocircuits of the present disclosure in the context of CARs, T cells expressing any of the CA2 CD40L-CAR constructs described herein were co-cultured with monocyte derived dendritic cells (DCs).
In vitro cultures were set up by adding 1×10^4 DCs into culture with 1×10^5 Nalm6 and 1×10^5 CAR+ T cells. […] Supernatants were collected 24 hours later and analyzed for IFNg and IL-12 by MSD assay. OT-001661 (SEQ ID NO. 6067; encoded by SEQ ID NO. 6068), that expressed CD40L payloads constitutively was used as control.

[3] = tested on: CA2 regulated CD40L in activated T cells; experiment: Regulation of CD40L in T cells by CA2, percent of cells expressing CD40L (surface expression); assay type: cell-based, human; details: ligand N/A
Method: To test regulation, activated T cells were lentivirally transduced with CA2 regulated CD40L (OT-001990) and a control of CD40L (OT-001661). Two days later, cells were treated with vehicle or […] ligand for 24h as described in Table 14 after which they were analyzed for CD40L surface expression. In the table, “Acz” is Acetazolamide.

[4] = tested on: CD40L constructs regulated by Carbonic anhydrase DDs in T cells; experiment: Time course regulation of CD40L in transduced T cells, FACS (MFI, % CD40L positive); assay type: cell-based, human; details: constitutive CD40L
Method: as §1
A control of empty vector (EV) and constitutive CD40L (OT-001661; amino acid SEQ ID NO. 6067 and nucleic acid SEQ ID NO. 6068) was also evaluated. Cells were fixed at 2, 4, 6, 8, 24, and 48 hours and then T cells were stained for CD40L expression and analyzed using FACS. The results are shown as median fluorescence intensity in Table 12 and as percentage CD40L positive cells in Table 13.

[5] = tested on: CA2 regulated CD40L in activated T cells; experiment: Regulation of CD40L in T cells by CA2, percent of cells expressing CD40L (surface expression); assay type: cell-based, human; details: All Cells, ligand N/A
[6] = tested on: CD40L in HEK293T cells; experiment: Soluble CD40L (shedding) in medium of transfected HEK293T cells, ELISA; assay type: cell-based, human; details: HEK293T cell culture medium, no ligand stated, Repeat 1

CC(=O)Nc1nnc(S(N)(=O)=O)s1 [Acetazolamide]
CD40L MFI ([1]; CD4+ T cells with CA2 DD CD40L construct (OT-001990), Acetazolamide 0.01 μM): 112 | Percentage CD40L positive cells ([1]; CD4+ T cells with CA2 DD regulated CD40L construct, Acetazolamide 0.01 μM): 4.13% | Percentage CD40L positive cells ([1]; CD4+ T cells with CA2 DD regulated CD40L construct, Acetazolamide 0.05 μM): 5.44% | Percentage CD40L positive cells ([1]; CD4+ T cells with CA2 DD regulated CD40L construct, Acetazolamide 0.2 μM): 10.3% | Percentage CD40L positive cells ([1]; CD4+ T cells with CA2 DD regulated CD40L construct, Acetazolamide 0.8 μM): 45.6% | Percentage CD40L positive cells ([1]; CD4+ T cells with CA2 DD regulated CD40L construct, Acetazolamide 3.1 μM): 69.3% | Percentage CD40L positive cells ([1]; CD4+ T cells with CA2 DD regulated CD40L construct, Acetazolamide 12.5 μM): 90.3% | Percentage CD40L positive cells ([1]; CD4+ T cells with CA2 DD regulated CD40L construct, Acetazolamide 50 μM): 91.1% | CD40L MFI ([1]; CD4+ T cells, Acetazolamide 0.2 μM): 185 | CD40L MFI ([1]; CD4+ T cells, Acetazolamide 0.8 μM): 481 | CD40L MFI ([1]; CD4+ T cells, Acetazolamide 3.1 μM): 840 | CD40L MFI ([1]; CD4+ T cells, Acetazolamide 12.5 μM): 2783 | CD40L MFI ([1]; CD4+ T cells, Acetazolamide 50 μM): 3728 | amount of Acetazolamide required to achieve stabilization of CD40L ([1]; CD4+ and CD8+ T cells): within the level of the ligand that can be achieved in humans | CD40L MFI ([1]; CD8+ T cells with CA2 DD CD40L construct (OT-001990), Acetazolamide 0.01 μM): 105 | Percentage CD40L positive cells ([1]; CD8+ T cells with CA2 DD regulated CD40L construct, Acetazolamide 0.01 μM): 0.59% | Percentage CD40L positive cells ([1]; CD8+ T cells with CA2 DD regulated CD40L construct, Acetazolamide 0.05 μM): 0.44% | Percentage CD40L positive cells ([1]; CD8+ T cells with CA2 DD regulated CD40L construct, Acetazolamide 0.2 μM): 1.48% | Percentage CD40L positive cells ([1]; CD8+ T cells with CA2 DD regulated CD40L construct, Acetazolamide 0.8 μM): 25.2% | Percentage CD40L positive cells ([1]; CD8+ T cells with CA2 DD regulated CD40L construct, Acetazolamide 3.1 μM): 41.2% | Percentage CD40L positive cells ([1]; CD8+ T cells with CA2 DD regulated CD40L construct, Acetazolamide 12.5 μM): 77.2% | Percentage CD40L positive cells ([1]; CD8+ T cells with CA2 DD regulated CD40L construct, Acetazolamide 50 μM): 80.7% | CD40L MFI ([1]; CD8+ T cells, Acetazolamide 0.05 μM): 104 | CD40L MFI ([1]; CD8+ T cells, Acetazolamide 0.2 μM): 136 | CD40L MFI ([1]; CD8+ T cells, Acetazolamide 0.8 μM): 307 | CD40L MFI ([1]; CD8+ T cells, Acetazolamide 3.1 μM): 380 | CD40L MFI ([1]; CD8+ T cells, Acetazolamide 12.5 μM): 1599 | CD40L MFI ([1]; CD8+ T cells, Acetazolamide 50 μM): 2184

B1: OT-001661: constitutive CD40L control; amino acid SEQ ID NO. 6067 and nucleic acid SEQ ID NO. 6068 (protein)
chain: MHMIETYNQTSPRSAATGLPISMKIFMYLLTVFLITQMIGSALFAVYLHRRLDKIEDERNLHEDFVFMKTIQRCNTGERSLSLLNCEEIKSQFEGFVKDIMLNKEETKKENSFEMQKGDQNPQIAAHVISEASSKTTSVLQWAEKGYYTMSNNLVTLENGKQLTVKRQGLYYIYAQVTFCSNREASSQAPFIASLCLKSPGRFERILLRAANTHSSAKPCGQQSIHLGGVFELQPGASVFVNVTDPSQVSHGTGFTSFGLLKL
notes: constitutive CD40L control; 6068
IFNg [2]: 1579.21 pg/mL | IL12 [2]: 58.88 pg/mL | MFI ([3]; All Cells): 20451 | CD40L positive ([3]; CD4+ T cells): 98.7% | MFI ([3]; CD4+ T cells): 24489 | CD40L positive ([3]; CD8+ T cells): 97.8% | MFI ([3]; CD8+ T cells): 14352 | CD40L MFI ([4]; CD4+ T cells, 2 hours): 4042 | Percentage CD40L positive cells ([4]; CD4+ T cells, 2 hours): 72.8% | CD40L MFI ([4]; CD4+ T cells, 4 hours): 4651 | Percentage CD40L positive cells ([4]; CD4+ T cells, 4 hours): 77% | CD40L MFI ([4]; CD4+ T cells, 6 hours): 3156 | Percentage CD40L positive cells ([4]; CD4+ T cells, 6 hours): 67.2% | CD40L MFI ([4]; CD4+ T cells, 24 hours): 9491 | Percentage CD40L positive cells ([4]; CD4+ T cells, 24 hours): 93.3% | CD40L MFI ([4]; CD4+ T cells, 48 hours): 5639 | Percentage CD40L positive cells ([4]; CD4+ T cells, 48 hours): 88.5% | CD40L MFI ([4]; CD8+ T cells, 2 hours): 2212 | Percentage CD40L positive cells ([4]; CD8+ T cells, 2 hours): 56.9% | CD40L MFI ([4]; CD8+ T cells, 4 hours): 2994 | Percentage CD40L positive cells ([4]; CD8+ T cells, 4 hours): 63.2% | CD40L MFI ([4]; CD8+ T cells, 6 hours): 1773 | Percentage CD40L positive cells ([4]; CD8+ T cells, 6 hours): 48.5% | CD40L MFI ([4]; CD8+ T cells, 24 hours): 3563 | Percentage CD40L positive cells ([4]; CD8+ T cells, 24 hours): 71.2% | CD40L MFI ([4]; CD8+ T cells, 48 hours): 2313 | Percentage CD40L positive cells ([4]; CD8+ T cells, 48 hours): 71.1% | CD40L positive [5]: 98% | sCD40L [6]: 2900 pg/mL
